Results taken from patent US20260070987A1.

B1: equine IgG1 T286S (antibody, part only; not given: Variable domains, not shown: another chain or arm of the molecule)
constant: ASTTAPKVFALAPGCGTTSDSTVALGCLVSGYFPEPVKVSWNSGSLTSGVHTFPSVLQSSGFYSLSSMVTVPASTWTSETYICNVVHAASNFKVDKRIEPIPDNHQKVCDMSKCPKCPAPELLGGPSVFIFPPNPKDTLMITRTPEVTCVVVDVSQENPDVKFNWYMDGVEVRSATTRPKEEQFNSTYRVVSVLRIQHQDWLSGKEFKCKVNNQALPQPIERTITKTKGRSQEPQVYVLAPHPDELSKSKVSVTCLVKDFYPPEINIEWQSNGQPELETKYSTTQAQQDSDGSYFLYSKLSVDRNRWQQGTTFTCGVMHEALHNHYTQKNVSKNPGK
B2: equine IgG4 D312E (antibody, part only; not given: variable domains, not shown: another chain or arm of the molecule)
constant: ASTTAPKVFPLASHSAATSGSTVALGCLVSSYFPEPVTVSWNSGALTSGVHTFPSVLQSSGLYSLSSMVTVPASSLKSQTYICNVAHPASSTKVDKKIVIKECNGGCPAECLQVGPSVFIFPPKPKDVLMISRTPTVTCVVVDVGHDFPDVQFNWYVDGVETHTATTEPKQEQFNSTYRVVSVLPIQHKEWLSGKEFKCKVNNKALPAPVERTISKPTGQPREPQVYVLAPHRDELSKNKVSVTCLVKDFYPTDIDIEWKSNGQPEPETKYSTTPAQLDSDGSYFLYSKLTVETNRWQQGTTFTCAVMHEALHNHYTEKSVSKSPGK
B3: equine IgG4 D312P (antibody, part only; not given: Variable domains, not shown: another chain or arm of the molecule)
constant: ASTTAPKVFPLASHSAATSGSTVALGCLVSSYFPEPVTVSWNSGALTSGVHTFPSVLQSSGLYSLSSMVTVPASSLKSQTYICNVAHPASSTKVDKKIVIKECNGGCPAECLQVGPSVFIFPPKPKDVLMISRTPTVTCVVVDVGHDFPDVQFNWYVDGVETHTATTEPKQEQFNSTYRVVSVLPIQHKPWLSGKEFKCKVNNKALPAPVERTISKPTGQPREPQVYVLAPHRDELSKNKVSVTCLVKDFYPTDIDIEWKSNGQPEPETKYSTTPAQLDSDGSYFLYSKLTVETNRWQQGTTFTCAVMHEALHNHYTEKSVSKSPGK
B4: equine IgG4 D312M (antibody, part only; not given: variable domains, not shown: another chain or arm of the molecule)
constant: ASTTAPKVFPLASHSAATSGSTVALGCLVSSYFPEPVTVSWNSGALTSGVHTFPSVLQSSGLYSLSSMVTVPASSLKSQTYICNVAHPASSTKVDKKIVIKECNGGCPAECLQVGPSVFIFPPKPKDVLMISRTPTVTCVVVDVGHDFPDVQFNWYVDGVETHTATTEPKQEQFNSTYRVVSVLPIQHKMWLSGKEFKCKVNNKALPAPVERTISKPTGQPREPQVYVLAPHRDELSKNKVSVTCLVKDFYPTDIDIEWKSNGQPEPETKYSTTPAQLDSDGSYFLYSKLTVETNRWQQGTTFTCAVMHEALHNHYTEKSVSKSPGK
B5: equine IgG4 D312L (antibody, part only; not given: variable domains, not shown: another chain or arm of the molecule)
constant: ASTTAPKVFPLASHSAATSGSTVALGCLVSSYFPEPVTVSWNSGALTSGVHTFPSVLQSSGLYSLSSMVTVPASSLKSQTYICNVAHPASSTKVDKKIVIKECNGGCPAECLQVGPSVFIFPPKPKDVLMISRTPTVTCVVVDVGHDFPDVQFNWYVDGVETHTATTEPKQEQFNSTYRVVSVLPIQHKLWLSGKEFKCKVNNKALPAPVERTISKPTGQPREPQVYVLAPHRDELSKNKVSVTCLVKDFYPTDIDIEWKSNGQPEPETKYSTTPAQLDSDGSYFLYSKLTVETNRWQQGTTFTCAVMHEALHNHYTEKSVSKSPGK
B6: equine IgG4 D312F (antibody, part only; not given: variable domains, not shown: another chain or arm of the molecule)
constant: ASTTAPKVFPLASHSAATSGSTVALGCLVSSYFPEPVTVSWNSGALTSGVHTFPSVLQSSGLYSLSSMVTVPASSLKSQTYICNVAHPASSTKVDKKIVIKECNGGCPAECLQVGPSVFIFPPKPKDVLMISRTPTVTCVVVDVGHDFPDVQFNWYVDGVETHTATTEPKQEQFNSTYRVVSVLPIQHKFWLSGKEFKCKVNNKALPAPVERTISKPTGQPREPQVYVLAPHRDELSKNKVSVTCLVKDFYPTDIDIEWKSNGQPEPETKYSTTPAQLDSDGSYFLYSKLTVETNRWQQGTTFTCAVMHEALHNHYTEKSVSKSPGK
B7: equine IgG4 D312H (antibody, part only; not given: Variable domains, not shown: another chain or arm of the molecule)
constant: ASTTAPKVFPLASHSAATSGSTVALGCLVSSYFPEPVTVSWNSGALTSGVHTFPSVLQSSGLYSLSSMVTVPASSLKSQTYICNVAHPASSTKVDKKIVIKECNGGCPAECLQVGPSVFIFPPKPKDVLMISRTPTVTCVVVDVGHDFPDVQFNWYVDGVETHTATTEPKQEQFNSTYRVVSVLPIQHKHWLSGKEFKCKVNNKALPAPVERTISKPTGQPREPQVYVLAPHRDELSKNKVSVTCLVKDFYPTDIDIEWKSNGQPEPETKYSTTPAQLDSDGSYFLYSKLTVETNRWQQGTTFTCAVMHEALHNHYTEKSVSKSPGK
B8: equine IgG4 D312N (antibody, part only; not given: variable domains, not shown: another chain or arm of the molecule)
constant: ASTTAPKVFPLASHSAATSGSTVALGCLVSSYFPEPVTVSWNSGALTSGVHTFPSVLQSSGLYSLSSMVTVPASSLKSQTYICNVAHPASSTKVDKKIVIKECNGGCPAECLQVGPSVFIFPPKPKDVLMISRTPTVTCVVVDVGHDFPDVQFNWYVDGVETHTATTEPKQEQFNSTYRVVSVLPIQHKNWLSGKEFKCKVNNKALPAPVERTISKPTGQPREPQVYVLAPHRDELSKNKVSVTCLVKDFYPTDIDIEWKSNGQPEPETKYSTTPAQLDSDGSYFLYSKLTVETNRWQQGTTFTCAVMHEALHNHYTEKSVSKSPGK
B9: equine IgG4 D312K (antibody, part only; not given: variable domains, not shown: another chain or arm of the molecule)
constant: ASTTAPKVFPLASHSAATSGSTVALGCLVSSYFPEPVTVSWNSGALTSGVHTFPSVLQSSGLYSLSSMVTVPASSLKSQTYICNVAHPASSTKVDKKIVIKECNGGCPAECLQVGPSVFIFPPKPKDVLMISRTPTVTCVVVDVGHDFPDVQFNWYVDGVETHTATTEPKQEQFNSTYRVVSVLPIQHKKWLSGKEFKCKVNNKALPAPVERTISKPTGQPREPQVYVLAPHRDELSKNKVSVTCLVKDFYPTDIDIEWKSNGQPEPETKYSTTPAQLDSDGSYFLYSKLTVETNRWQQGTTFTCAVMHEALHNHYTEKSVSKSPGK
B10: equine IgG4 D312Q (antibody, part only; not given: variable domains, not shown: another chain or arm of the molecule)
constant: ASTTAPKVFPLASHSAATSGSTVALGCLVSSYFPEPVTVSWNSGALTSGVHTFPSVLQSSGLYSLSSMVTVPASSLKSQTYICNVAHPASSTKVDKKIVIKECNGGCPAECLQVGPSVFIFPPKPKDVLMISRTPTVTCVVVDVGHDFPDVQFNWYVDGVETHTATTEPKQEQFNSTYRVVSVLPIQHKQWLSGKEFKCKVNNKALPAPVERTISKPTGQPREPQVYVLAPHRDELSKNKVSVTCLVKDFYPTDIDIEWKSNGQPEPETKYSTTPAQLDSDGSYFLYSKLTVETNRWQQGTTFTCAVMHEALHNHYTEKSVSKSPGK
B11: equine IgG4 D312G (antibody, part only; not given: variable domains, not shown: another chain or arm of the molecule)
constant: ASTTAPKVFPLASHSAATSGSTVALGCLVSSYFPEPVTVSWNSGALTSGVHTFPSVLQSSGLYSLSSMVTVPASSLKSQTYICNVAHPASSTKVDKKIVIKECNGGCPAECLQVGPSVFIFPPKPKDVLMISRTPTVTCVVVDVGHDFPDVQFNWYVDGVETHTATTEPKQEQFNSTYRVVSVLPIQHKGWLSGKEFKCKVNNKALPAPVERTISKPTGQPREPQVYVLAPHRDELSKNKVSVTCLVKDFYPTDIDIEWKSNGQPEPETKYSTTPAQLDSDGSYFLYSKLTVETNRWQQGTTFTCAVMHEALHNHYTEKSVSKSPGK
B12: equine IgG4 D312I (antibody, part only; not given: Variable domains, not shown: another chain or arm of the molecule)
constant: ASTTAPKVFPLASHSAATSGSTVALGCLVSSYFPEPVTVSWNSGALTSGVHTFPSVLQSSGLYSLSSMVTVPASSLKSQTYICNVAHPASSTKVDKKIVIKECNGGCPAECLQVGPSVFIFPPKPKDVLMISRTPTVTCVVVDVGHDFPDVQFNWYVDGVETHTATTEPKQEQFNSTYRVVSVLPIQHKIWLSGKEFKCKVNNKALPAPVERTISKPTGQPREPQVYVLAPHRDELSKNKVSVTCLVKDFYPTDIDIEWKSNGQPEPETKYSTTPAQLDSDGSYFLYSKLTVETNRWQQGTTFTCAVMHEALHNHYTEKSVSKSPGK

These binders were tested against equine FcRn (large alpha subunit p51) / equine beta-2-microglobulin complex, biotinylated (equine) (UniProt P30441) (assay: SPR (Biacore), pH 6).
Chain of UniProt P30441 (P30441 21-118, one chain of several): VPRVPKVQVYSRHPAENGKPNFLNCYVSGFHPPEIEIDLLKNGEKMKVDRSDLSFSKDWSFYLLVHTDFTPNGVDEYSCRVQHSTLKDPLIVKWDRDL
In the case of B1, the Kd is reported as 13.1 nM.
B2 showed a Kd of 50.2 nM.
B3 gave a Kd of 15.1 nM.
Work on B4 yielded a Kd of 25 nM.
Binder B5 has a Kd of 11.6 nM.
Work on B6 yielded a Kd of 23 nM.
In the case of B7, the Kd is reported as 20.2 nM.
In the case of B8, the Kd is reported as 16.1 nM.
Binder B9 has a Kd of 13.6 nM.
In the case of B10, the Kd is reported as 28.1 nM.
With B11 the Kd was 11.2 nM.
Work on B12 yielded a Kd of 29.4 nM.
